Results published in the supplement of paper PMC7877785.
± gives the uncertainty stated by the source.

Experiment: self-splicing fitness, log relative to wild type (ln ratio); higher = more splicing; Tetrahymena group I intron in knt gene, E. coli kanamycin selection, DiMSum; sequences stand for … in CUCUCU…GGAGGGAAAAGUUAUCAGGCAUGCACCUGGUAGCUAGUCUUUAAACCAAUAGAUUGCAUCGGUUUAAAAGGCAAGACCGUCAAAUUGCGGGAAAGGGGUCAACAGCCGUUCAGUACCAAGUCUCAGGGGAAACUUUGAGAUGGCCUUGCAAAGGGUAUGGUAAUAAGCUGACGGACAUGGUCCUAACCACGCAGCCAAGUCCUAAGUCAACAGAUCUUCUGUUGAUAUGGAUGCAGUUCACAGACUAAAUGUCGGUCGGGGAAGAUGUAUUCUUCUCAUAAGAUAUAGUCGGACCUCUCCUUAAUGGGAGCUAGCGGAUGAAGUGAUGCAACACUGGAGCCGCUGGGAACUAAUUUGUAUGCGAAAGUAUAUUGAUUAGUUUUGGAGUACUCGUGGUCG
Method in brief: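 DiMSum derived fitness as the error-weighted combination of fold changes across replicates, kanamycin versus no kanamycin, normalised to wild type. E. coli BL21(DE3) held the library, which randomised all eight P1ex-region intron nucleotides within the knt kanamycin-resistance gene on pET-22b(+). Six replicate transformations grew overnight at 37°C or 30°C on LB agar with or without 25 μg/mL kanamycin, also containing 100 μg/mL carbenicillin, 50 μM IPTG and 0.2% rhamnose, and pooled colonies were amplicon-sequenced on an Illumina HiSeq 2500.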

| Sequence | self-splicing fitness (ln) (30 °C) | self-splicing fitness (ln) (37 °C) |
| --- | --- | --- |
| GACGAGCAAUAUUACGGCGA | -2.12 ± 0.13 | -1.65 ± 0.13 |
| GACGAGCAAUAUUACGGGCC | -2.12 ± 0.14 | -1.63 ± 0.21 |
| GACGAGCAAUAUUACGGGGG | -3.65 ± 0.22 | -2.98 ± 0.3 |
| GACGAGCAAUAUUACGGGGU |  | -2.59 ± 0.25 |
| GACGAGCAAUAUUACGGUAU | -3.43 ± 0.19 | -2.08 ± 0.26 |
| GACGAGCAAUAUUACGUAAA | -2.58 ± 0.18 |  |
| GACGAGCAAUAUUACGUACC | -3.61 ± 0.28 | -1.75 ± 0.21 |
| GACGAGCAAUAUUACGUAGC | -4.54 ± 0.41 | -2.33 ± 0.25 |
| GACGAGCAAUAUUACGUAUA | -3.23 ± 0.29 | -0.524 ± 0.2 |
| GACGAGCAAUAUUACGUCCU | -3.24 ± 0.25 | -1.81 ± 0.25 |
| GACGAGCAAUAUUACGUCGG |  | -1.96 ± 0.34 |
| GACGAGCAAUAUUACGUGCU | -2.92 ± 0.19 | -2.4 ± 0.23 |
| GACGAGCAAUAUUACGUUCC | -3.47 ± 0.23 | -2.65 ± 0.36 |
| GACGAGCAAUAUUACGUUCU | -4.53 ± 0.37 | -2.52 ± 0.24 |
| GACUAGCAAUAUUACGAAGG | -2.64 ± 0.17 | -1.87 ± 0.18 |
| GACUAGCAAUAUUACGAGGG | -3.34 ± 0.18 | -2.65 ± 0.2 |
| GACUAGCAAUAUUACGAUUU | 0.261 ± 0.061 | 0.116 ± 0.077 |
| GACUAGCAAUAUUACGCAAA | -1.49 ± 0.15 | -1.88 ± 0.23 |
| GACUAGCAAUAUUACGCCGG |  | -1.67 ± 0.36 |
| GACUAGCAAUAUUACGCCUU | -0.605 ± 0.067 | 0.734 ± 0.092 |
| GACUAGCAAUAUUACGCGGA | -1.55 ± 0.13 | -0.984 ± 0.11 |
| GACUAGCAAUAUUACGCGGC | -3.16 ± 0.38 |  |
| GACUAGCAAUAUUACGGAAG | -3.56 ± 0.19 | -2.21 ± 0.19 |
| GACUAGCAAUAUUACGGCUC | 0.193 ± 0.1 | 0.351 ± 0.12 |
| GACUAGCAAUAUUACGGGAA | -2.32 ± 0.19 | -0.809 ± 0.16 |

| Sequence | self-splicing fitness (ln) (30 °C) | self-splicing fitness (ln) (37 °C) |
| --- | --- | --- |
| GACUAGCAAUAUUACGGGGC | -4.11 ± 0.23 | -1.21 ± 0.13 |
| GACUAGCAAUAUUACGGGGG | -3.39 ± 0.27 | -1.46 ± 0.25 |
| GACUAGCAAUAUUACGGGUG | -1.25 ± 0.078 | -0.949 ± 0.07 |
| GACUAGCAAUAUUACGGUAG | -0.551 ± 0.12 | -0.15 ± 0.14 |
| GACUAGCAAUAUUACGUCAG | -2.88 ± 0.21 | -3.7 ± 0.37 |
| GAGAAGCAAUAUUACGACUA | -0.502 ± 0.061 | 0.183 ± 0.082 |
| GAGAAGCAAUAUUACGAGCC | -1.03 ± 0.097 | -0.808 ± 0.15 |
| GAGAAGCAAUAUUACGAGUG | -2.91 ± 0.14 | -1.01 ± 0.11 |
| GAGAAGCAAUAUUACGCACU | -1.73 ± 0.14 | -0.249 ± 0.16 |
| GAGAAGCAAUAUUACGCAUA | -1.72 ± 0.13 | -1.01 ± 0.14 |
| GAGAAGCAAUAUUACGCCCG | -2.15 ± 0.19 | 0.00226 ± 0.24 |
| GAGAAGCAAUAUUACGCGUG | -0.423 ± 0.062 | -0.803 ± 0.09 |
| GAGAAGCAAUAUUACGCUAA | -2.47 ± 0.3 | -0.911 ± 0.24 |
| GAGAAGCAAUAUUACGGAAA | -2.35 ± 0.45 | -1.92 ± 0.35 |
| GAGAAGCAAUAUUACGGACA | -0.633 ± 0.11 | -1.02 ± 0.14 |
| GAGAAGCAAUAUUACGGACC | -0.43 ± 0.18 | 0.267 ± 0.19 |
| GAGAAGCAAUAUUACGGCAC | -1.28 ± 0.083 | -0.111 ± 0.15 |
| GAGAAGCAAUAUUACGGCAG | -3.08 ± 0.41 | -1.85 ± 0.3 |
| GAGAAGCAAUAUUACGGGAC | -2.56 ± 0.13 | -1.37 ± 0.12 |
| GAGAAGCAAUAUUACGGGAU | -3.32 ± 0.16 | -2.58 ± 0.2 |
| GAGAAGCAAUAUUACGGGUC | -3.08 ± 0.15 | -2.24 ± 0.16 |
| GAGAAGCAAUAUUACGGUCU | -2.29 ± 0.13 | -1.16 ± 0.17 |
| GAGAAGCAAUAUUACGUAGA | -2 ± 0.14 | -0.626 ± 0.14 |
| GAGAAGCAAUAUUACGUAUA | -2.51 ± 0.14 | -1.71 ± 0.14 |
